Molecular target: T1, activated soluble HLA-A*0201 (PolyTest) (human)
T1 construct: also called sHLA
Experiment: fluorescence polarization competition against 2.2 nM standard FITC-labeled peptide P5(A*0201), 40.5 µg/ml sHLA A*0201VLDL (2507)

| logIC50(nM) | Binder |
| --- | --- |
| 2.97 log10 of nM | GVLPALPQV (Synthetic peptide; also called GVL(47)) [GVL peptide, GVLPALPQV (hCGβ 47-55)] |
| 3.27 log10 of nM | TMTRVLQGV (Synthetic peptide; also called TMT(40)) [TMT peptide, TMTRVLQGV (hCGβ 40-48)] |
| 2.96 log10 of nM | VLQGVLPAL (Synthetic peptide; also called VLQ(44)) [VLQ peptide, VLQGVLPAL (hCGβ 44-52)] |
